What was measured:
[1] = target: CD62P lectin domain R16E/K17E mutant
[2] = target: CD62P (P-selectin) lectin domain (residues 1–117), wild type; experiment: ELISA; wells coated with the CD62P lectin domain (WT, mutants, or lectin+EGF; 50 μg/ml where stated), blocked with BSA; soluble αvβ3 or αIIbβ3 (1 μg/ml) in HEPES-Tyrodes buffer with 1 mM MnCl2, 1 h, room temperature; bound integrin detected with anti-β3 mAb AV-10 and HRP anti-mouse IgG
Chain of CD62P (P-selectin) lectin domain (residues 1–117), wild type (P16109 42-158): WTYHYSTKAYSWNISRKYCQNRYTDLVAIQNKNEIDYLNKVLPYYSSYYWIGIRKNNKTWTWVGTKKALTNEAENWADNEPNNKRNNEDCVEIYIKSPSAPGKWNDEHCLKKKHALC

Chain of CD62P lectin domain R16E/K17E mutant (P16109 42-158 R57E/K58E): as the sequence (P16109 42-158) above, with R16E, K17E counted along it
Chain of integrin αvβ3 on β3-CHO cells (P05106 whole entry, looked up): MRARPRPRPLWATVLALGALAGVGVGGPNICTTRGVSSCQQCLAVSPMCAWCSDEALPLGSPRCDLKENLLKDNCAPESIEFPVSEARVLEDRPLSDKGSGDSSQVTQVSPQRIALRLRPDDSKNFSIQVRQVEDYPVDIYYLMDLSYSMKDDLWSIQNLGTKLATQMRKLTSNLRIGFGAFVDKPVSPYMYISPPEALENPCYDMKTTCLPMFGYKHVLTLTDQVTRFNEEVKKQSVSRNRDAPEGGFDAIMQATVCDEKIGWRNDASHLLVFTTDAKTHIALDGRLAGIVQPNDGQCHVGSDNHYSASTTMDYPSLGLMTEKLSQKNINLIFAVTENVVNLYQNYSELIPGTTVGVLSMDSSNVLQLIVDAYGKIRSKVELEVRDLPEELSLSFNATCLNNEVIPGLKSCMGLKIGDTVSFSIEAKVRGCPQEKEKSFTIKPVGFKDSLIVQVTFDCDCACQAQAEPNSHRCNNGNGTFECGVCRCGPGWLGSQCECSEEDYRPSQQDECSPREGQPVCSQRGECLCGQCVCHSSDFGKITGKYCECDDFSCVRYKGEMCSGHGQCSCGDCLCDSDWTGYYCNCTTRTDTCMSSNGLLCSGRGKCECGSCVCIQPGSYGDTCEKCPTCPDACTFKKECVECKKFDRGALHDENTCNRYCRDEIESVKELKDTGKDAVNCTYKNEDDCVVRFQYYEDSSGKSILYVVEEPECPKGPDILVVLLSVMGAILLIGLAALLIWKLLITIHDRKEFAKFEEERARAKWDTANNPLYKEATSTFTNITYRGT

Row | fold binding relative to the combined lectin and EGF-like domains [2] | Substance | other results
1 | – | integrin αvβ3 on β3-CHO cells (from UniProt P05106 27-788) (receptor) | static adhesion of β3-CHO cells to wells coated with the R16E/K17E lectin domain (50 μg/ml), Mg2+ buffer [1]: 60 % reduced
2 | – | integrin α5β1 on parent CHO cells (receptor) | static adhesion of parent CHO cells to wells coated with the R16E/K17E lectin domain (50 μg/ml), Mg2+ buffer [1]: 60 % reduced
3 | 2 fold | soluble recombinant integrin αIIbβ3 (from UniProt P08514 32-1039; P05106 27-718) (receptor) | –
4 | 2 fold | soluble recombinant integrin αvβ3 (from UniProt P06756 31-1048; P05106 27-718) (receptor) | –

— PMC10130748
